Data: paper PMC10302723, “Differential regulation of Shigella Spa47 ATPase activity by a native C-terminal product of Spa33” (Frontiers in Cellular and Infection Microbiology, 2023)

Assays:
[1] = target: the molecule itself; experiment: AUC; sedimentation velocity of purified His-tagged Spa33C; a single dominant species of 27 ± 3 kDa; monomer to dimer
[2] = target: T1, monomeric Spa47 (SEC-isolated) (Shigella, UniProt P0A1C1 1-430); experiment: fluorescence polarisation; EGFP-Spa33C (or EGFP as control) held at 100 nM, Spa47 monomer or oligomer titrated 0-1.5 μM (monomer units); single site saturation binding model; concentration at half-maximum change in polarisation; settings: both partners purified
T1 construct: Spa47, Shigella T3SS ATPase; Same construct as m5 and m8; also called Spa47 monomer; monomeric Spa47 isolate; source: E. coli, purified (chitin column with on-column intein cleavage, anion exchange, SEC isolation of the monomer)

[3] = target: T2, oligomeric Spa47 (SEC-isolated homo-oligomer) (Shigella, UniProt P0A1C1 1-430); experiment: as above; settings: both partners purified
T2 construct: Spa47, Shigella T3SS ATPase; Same construct as m5 and m7; also called Spa47 oligomer; homo-oligomeric Spa47; source: E. coli, purified (chitin column with on-column intein cleavage, anion exchange, SEC isolation of the oligomer)

B1: Spa33C containing an N-terminal 6 x histidine tag (domain or fragment)
chain: MNDNNEAKINLSESNGESEHTEVSLALFNYDDINVKVDFILLEKNMTINELKMYVENELFKFPDDIVKHVNIKVNGSLVGHGELVSIEDGYGIEISSWMVKE
notes: Spa33, Shigella flexneri 2457T; Homodimer by SV-AUC (27 ± 3 kDa; dimer with His tag = 27.5 kDa); also called recombinant Spa33C; homo-dimeric Spa33C; source: E. coli, purified (IMAC, SEC); not shown: His6, N-terminal, kept
[1]
  stoichiometry N: 2

B2: EGFP-Spa33C fluorescent protein chimera with an N-terminal 6 x histidine tag (domain or fragment)
chain: B1 chain
notes: Spa33, Shigella flexneri 2457T; EGFP is the fluorescent probe of the polarisation assay; Oligomer state of the chimera was not measured (Spa33C with His tag is a homodimer); also called fluorescent Spa33C construct; source: E. coli (pET15b), purified (IMAC, SEC); not shown: EGFP, N-terminal, kept
[2]
  Kd: 50 ± 7 nM
[3]
  Kd: 80 ± 10 nM
